The text below walks through data of the supplement of paper PMC9233669.

Fewer inactive variants are shown than the library holds.

Series [1] deals with biotinyl-Phe-oxazolone. Put plainly: self-aminoacylation, catalytic enhancement (BFO) (fold over background); higher = more active; k-Seq, kA / k0A0; sequences stand for … in GGGAAUGGAUCCACAUCUACGAAUUC…UUCACUGCAGACUUGACGAAGCUG
The method, boiled down: (§1)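 Each biotinyl-aminoacyl-oxazolone, at 2–1250 μM, was incubated with mutagenized RNA pools (0.43 μM) carrying a 21-nt variable region. The 50 μL reactions contained HEPES/NaCl/KCl/MgCl2/CaCl2 buffer with 5% acetonitrile at pH 6.9–7.0 and ran for 90 minutes at room temperature. After streptavidin capture, RNA was measured by qPCR in triplicate and by Illumina sequencing, and catalytic enhancement was calculated as median kA over the uncatalyzed rate from a pseudo-first-order fit of per-sequence fraction reacted.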

The subject of series [2] is biotinyl-Ile-oxazolone. The series can be described thus: self-aminoacylation, catalytic enhancement (BIO) (fold over background); higher = more active; k-Seq, kA / k0A0; sequences stand for … in GGGAAUGGAUCCACAUCUACGAAUUC…UUCACUGCAGACUUGACGAAGCUG
A digest of the protocol: as §1

Series [3] has as its system biotinyl-Met-oxazolone. Put plainly: self-aminoacylation, catalytic enhancement (BMO) (fold over background); higher = more active; k-Seq, kA / k0A0; sequences stand for … in GGGAAUGGAUCCACAUCUACGAAUUC…UUCACUGCAGACUUGACGAAGCUG
The method, boiled down: as §1

In series [4] the test system is biotinyl-Val-oxazolone. Put plainly: self-aminoacylation, catalytic enhancement (BVO) (fold over background); higher = more active; k-Seq, kA / k0A0; sequences stand for … in GGGAAUGGAUCCACAUCUACGAAUUC…UUCACUGCAGACUUGACGAAGCUG
A digest of the protocol: as §1

The subject of series [5] is biotinyl-Leu-oxazolone. Put plainly: self-aminoacylation, catalytic enhancement (BLO) (fold over background); higher = more active; k-Seq, kA / k0A0; sequences stand for … in GGGAAUGGAUCCACAUCUACGAAUUC…UUCACUGCAGACUUGACGAAGCUG
A digest of the protocol: as §1

Series [6] concerns biotinyl-Trp-oxazolone. Put plainly: self-aminoacylation, catalytic enhancement (BWO) (fold over background); higher = more active; k-Seq, kA / k0A0; sequences stand for … in GGGAAUGGAUCCACAUCUACGAAUUC…UUCACUGCAGACUUGACGAAGCUG
The method, boiled down:
as §1

Take “CUACUUGAAACAAUCCGUCUG [Fam1A.1 aminoacylation ribozyme variant]”: the self-aminoacylation in series [1] worked out at 0.462; in series [2] it was 0.813; in series [3], 1.03; in series [4], 0.836; in series [5] it was 0.759; in series [6], 1.44.
Turning to “AUUCCCCCAGGUCAUCGGGUG [Fam2.2 aminoacylation ribozyme variant]”, the self-aminoacylation in series [1] came out at 174; in series [2], 14; in series [3], 17.1; in series [4], 11.4; in series [5], 24.7; in series [6], 17.1.
“AAUCACCUAGGUCAUCGGCUG [Fam2.2 aminoacylation ribozyme variant]”: the self-aminoacylation in series [1] came to 10.9; in series [2], 2.3; in series [3] it was 3.21; in series [4], 2.34; in series [5], 2.14; in series [6], 2.68.
“AAGUUCCCUAAUAGUCGCAAG [Fam3.1 aminoacylation ribozyme variant]”: the self-aminoacylation came out at 0.485 in series [1]; 1.12 in series [2]; 0.931 in series [3]; 0.992 in series [4]; 0.965 in series [5]; 0.613 in series [6].
On to “CUACUUCAAACAAUCGCUCUA [Fam1A.1 aminoacylation ribozyme variant]”, for which the self-aminoacylation in series [1] came out at 0.778; in series [2], 0.862; in series [3], 1.05; in series [4], 0.948; in series [5] it was 0.642; in series [6] it was 0.736.
Consider “AUACCCCUGGUCAUCGAGUGA [Fam2.1 aminoacylation ribozyme variant]”, for which the self-aminoacylation is 7.63 in series [1]; 3.42 in series [2]; 6.17 in series [3]; 2.88 in series [4]; 5.62 in series [5]; 7.04 in series [6].
For the sequence “AUUACCCUGGUCAACGAGUGG [Fam2.1 aminoacylation ribozyme variant]”, the self-aminoacylation in series [1] was found to be 2.19; in series [2], 1.04; in series [3], 1.49; in series [4], 1.09; in series [5] it was 1.38; in series [6], 1.78.
On to “AUUACCCUGGUCAUCGACUGU [Fam2.1 aminoacylation ribozyme variant]”, for which the self-aminoacylation in series [1] amounted to 0.377; in series [2], 0.846; in series [3], 0.726; in series [4] it was 0.804; in series [5], 0.82; in series [6], 0.723.
On to “AUUCCCCUGGUCACCGAGUGA [Fam2.1 aminoacylation ribozyme variant]”, for which the self-aminoacylation is 73.1 in series [1]; 5.93 in series [2]; 9.9 in series [3]; 5.07 in series [4]; 11.1 in series [5]; 12.6 in series [6].
Take “AUUCACAUAGGUGAUCGGGUG [Fam2.2 aminoacylation ribozyme variant]”: the self-aminoacylation is 20.5 in series [1]; 3.05 in series [2]; 3.4 in series [3]; 3.14 in series [4]; 3.56 in series [5]; 3.79 in series [6].
As to “AUUACCUUGGUCAUAGAGUGA [Fam2.1 aminoacylation ribozyme variant]”, the self-aminoacylation in series [1] came to 25.4; in series [2], 3.58; in series [3] it was 6.82; in series [4], 3.69; in series [5], 7.24; in series [6] it was 9.04.
Consider “AUUACCCUGGUCAACGAGUCA [Fam2.1 aminoacylation ribozyme variant]”, for which the self-aminoacylation in series [1] came to 0.683; in series [2] it was 1.14; in series [3], 1.05; in series [4] it was 0.969; in series [5], 0.745; in series [6], 0.482.
As to “CCACACGUCAACCAAUCGGUC [Fam1B.1 aminoacylation ribozyme variant]”, the self-aminoacylation in series [1] came out at 1.24; in series [2] it was 1.09; in series [3], 1.07; in series [4], 1.47; in series [5] it was 1.17; in series [6], 1.32.
“CCACACUUAAAGCAAUCUGUC [Fam1B.1 aminoacylation ribozyme variant]”: the self-aminoacylation in series [1] was 0.686; in series [2], 0.463; in series [3], 0.391; in series [4], 0.676; in series [5], 0.414; in series [6], 0.349.
As for “AUCCACCUAGGUCAUCGGGGG [Fam2.2 aminoacylation ribozyme variant]”, the self-aminoacylation in series [1] amounted to 2.86; in series [2], 4.14; in series [3], 3.97; in series [4], 2.77; in series [5], 5.3; in series [6], 4.13.
For the sequence “CUACGUCAAACAAUCCGUCUG [Fam1A.1 aminoacylation ribozyme variant]”, the self-aminoacylation in series [1] was 2.75; in series [2], 1.25; in series [3] it was 1.43; in series [4], 1.24; in series [5] it was 0.974; in series [6] it was 1.18.
On to “AUUCACAUGGGUCAUCGGGUG [Fam2.2 aminoacylation ribozyme variant]”, for which the self-aminoacylation in series [1] stood at 70.4; in series [2] it was 5.6; in series [3], 9.66; in series [4], 5.96; in series [5], 11.6; in series [6], 8.84.
For “CCACACUUCAAGCAAUACGUC [Fam1B.1 aminoacylation ribozyme variant]”, the self-aminoacylation stood at 1.36 in series [1]; 0.705 in series [2]; 0.457 in series [3]; 0.925 in series [4]; 0.563 in series [5]; 0.556 in series [6].
With “CUACUUCAAACAAUCGGGCUU [Fam1A.1 aminoacylation ribozyme variant]”, the self-aminoacylation is 1.14 in series [1]; 1.55 in series [2]; 1.12 in series [3]; 1.32 in series [4]; 0.955 in series [5]; 1.3 in series [6].
On to “CCACCCUUCAAGCUAUCGGUC [Fam1B.1 aminoacylation ribozyme variant]”, for which the self-aminoacylation amounted to 0.937 in series [1]; 1.08 in series [2]; 0.845 in series [3]; 1.43 in series [4]; 1.11 in series [5]; 1.09 in series [6].
For “AUUCACCUAGGUCAUCGGAUG [Fam2.2 aminoacylation ribozyme variant]”, the self-aminoacylation was 0.601 in series [1]; 0.814 in series [2]; 0.773 in series [3]; 0.928 in series [4]; 0.748 in series [5]; 0.594 in series [6].
With “CCCCACUUCAAGCAAUCGGUU [Fam1B.1 aminoacylation ribozyme variant]”, the self-aminoacylation in series [1] turned out to be 12.7; in series [2], 2.66; in series [3] it was 3.35; in series [4] it was 3.68; in series [5] it was 4.7; in series [6], 16.9.
Take “AUUCACCUAGGUCAUCGGGUU [Fam2.2 aminoacylation ribozyme variant]”: the self-aminoacylation in series [1] was determined as 118; in series [2] it was 10.8; in series [3] it was 18.4; in series [4], 9.43; in series [5] it was 26.4; in series [6], 13.8.
On to “CCACACUUCAAGCACUGGGUC [Fam1B.1 aminoacylation ribozyme variant]”, for which the self-aminoacylation is 0.974 in series [1]; 0.807 in series [2]; 0.66 in series [3]; 1.1 in series [4]; 0.971 in series [5]; 1.03 in series [6].
For the sequence “AUGUUUGCUAAUAGUCGCAUG [Fam3.1 aminoacylation ribozyme variant]”, the self-aminoacylation is 1.52 in series [1]; 1.34 in series [2]; 1.58 in series [3]; 1.39 in series [4]; 1.72 in series [5]; 1.38 in series [6].
